This data set deals with the molecule itself. Put plainly: size-exclusion chromatography of anti-FLAG affinity purified protein (self-association into a homodimer).

We go through one protein from US20230203470A1 (published 2023).

Protocol: Batch purification was performed using an anti-FLAG M2 affinity resin (Sigma-Aldrich, St. Louis, Mo., Cat. No. A2220), following the manufacturer's instructions. ADA2 were eluted from the resin using FLAG™ peptide. Purity of the eluted protein was assessed using SDS-PAGE and size-exclusion chromatography (SEC).

B1: WT recombinant human ADA2-FLAG polypeptide (enzyme)
chain: IDETRAHLLLKEKMMRLGGRLVLNTKEELANERLMTLKIAEMKEAMRTLIFPPSMHFFQAKHLIERSQVFNILRMMPKGAALHLHDIGIVTMDWLVRNVTYRPHCHICFTPRGIMQFRFAHPTPRPSEKCSKWILLEDYRKRVQNVTEFDDSLLRNFTLVTQHPEVIYTNQNVVWSKFETIFFTISGLIHYAPVFRDYVFRSMQEFYEDNVLYMEIRARLLPVYELSGEHHDEEWSVKTYQEVAQKFVETHPEFIGIKIIYSDHRSKDVAVIAESIRMAMGLRIKFPTVVAGFDLVGHEDTGHSLHDYKEALMIPAKDGVKLPYFFHAGETDWQGTSIDRNILDALMLNTTRIGHGFALSKHPAVRTYSWKKDIPIEVCPISNQVLKLVSDLRNHPVATLMATGHPMVISSDDPAMFGAKGLSYDFYEVFMGIGGMKADLRTLKQLAMNSIKYSTLLESEKNTFMEIWKKRWDKFIADVATKDYKDDDDK
notes: The only entry describes two identical subunits associating into the homodimer seen by SEC; Expressed in CHO-S cells and purified on anti-FLAG M2 resin; also called rHuADA2; rHuADA2-FLAG
For the protein B1, the binding result is reported as “binds”.
